Results: article PMC6346101 (2019)

Target: Biotinylated D/NP_(TAIL) fused to a biotinylation motif (Influenza D virus, strain …, UniProt A0A0E3VZU8 505-552)
Assay: SPR

B1: human importin-α7 without its IBB domain (amino-acids 58 to 536) (domain or fragment)
chain: not shown
koff: 0.09 s⁻¹
